# Measurements from US20190315854A1 (BEIJING VDJBIO, published 2019).
# T1: sIL-6R (soluble IL-6 receptor; SBH Sciences) (human, UniProt P08887 20-365)
# T1 construct: also called human IL-6R
# T1 sequence: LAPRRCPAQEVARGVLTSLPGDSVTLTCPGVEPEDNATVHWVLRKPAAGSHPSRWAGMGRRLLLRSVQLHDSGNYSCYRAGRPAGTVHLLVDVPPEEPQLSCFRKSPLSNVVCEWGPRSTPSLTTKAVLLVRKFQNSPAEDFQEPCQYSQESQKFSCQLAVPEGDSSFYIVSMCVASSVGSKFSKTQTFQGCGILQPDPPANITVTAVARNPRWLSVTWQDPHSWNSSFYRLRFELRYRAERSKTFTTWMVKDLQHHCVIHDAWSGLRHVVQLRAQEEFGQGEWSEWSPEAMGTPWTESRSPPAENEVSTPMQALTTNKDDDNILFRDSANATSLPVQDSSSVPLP
# Biological target: T1, sIL-6R (soluble IL-6 receptor; SBH …)
# Experiment: SPR (BIAcore 3000), antibody on chip, sIL-6R analyte, 25 C
# Protocol: (§1) All SPR measurements were performed on a BIAcore 3000 instrument (GE Biosciences, Piscataway, N.J.). BIAcore Software-BIAcore 3000 Control Software V3.2 was used for the operation and control of the BIAcore 3000 instrument. BiaEvaluation Software V4.1 was used for the analysis of SPR data from the BIAcore 3000 instrument and data was plotted using Graph Pad Prism Software Version 5. […] The indicated antibodies were used as the ligand for the construction of the reference channel of the chip. […] Each sample was injected for 3 min at a flow rate of 30 μL/min to allow for binding to chip-bound antibody. Next, binding buffer without analyte was sent over the chip at the same flow rate to allow for dissociation of bound analyte. After 500s, remaining bound analyte was removed by injecting regeneration solution (1M Formic acid). Data was analyzed by using the Kinetics Wizard and the manual fitting programs that are both included with the BiaEvaluation Software V4.1.
Kd,Relative Affinity,koff,kon,Binder
0.1 nM,13.4 fold vs 25 (Tocilizumab),2.92e-05 s⁻¹,292000 M⁻¹ s⁻¹,"31# (antibody, human IgG1, kappa, V domains shown, also called Sample # 31) VH: QVQLQESGPGLVRPSQTLSLTCTVSGYSITSDHAWSWVRQPPGRGLEWIGFISYSGMTTYNPSLKSRVTMLRDTSKNQFSLRLSSVTAADTAVYYCARSLARITAMDYWGQGSLVTVSS VL: DIQMTQSPSSLSASVGDRVTITCRASQDISSYLNWYQQKPGKAPKLLIYYTSRLHSGVPSRFSGSGSGTDFTFTISSLQPEDIATYYCQQGNTLPYTFGQGTKVEIKR"

# Biological target: T1, sIL-6R (soluble IL-6 receptor; SBH …)
# Experiment: as above
# Remark: another data set of the same source
# Protocol: as §1
Kd,Relative Affinity,koff,kon,Binder
0.156 nM,11 fold vs 25 (Tocilizumab),5.99e-05 s⁻¹,385000 M⁻¹ s⁻¹,"31# (antibody, human IgG1, kappa, V domains shown, also called Sample # 31) VH: QVQLQESGPGLVRPSQTLSLTCTVSGYSITSDHAWSWVRQPPGRGLEWIGFISYSGMTTYNPSLKSRVTMLRDTSKNQFSLRLSSVTAADTAVYYCARSLARITAMDYWGQGSLVTVSS VL: DIQMTQSPSSLSASVGDRVTITCRASQDISSYLNWYQQKPGKAPKLLIYYTSRLHSGVPSRFSGSGSGTDFTFTISSLQPEDIATYYCQQGNTLPYTFGQGTKVEIKR"

# Biological target: T1, sIL-6R (soluble IL-6 receptor; SBH …)
# Experiment: as above
# Remark: another data set of the same source
# Protocol: as §1
Kd,Relative Affinity,koff,kon,Binder
1.65 nM,1.7 fold vs 25 (Tocilizumab),0.000218 s⁻¹,132000 M⁻¹ s⁻¹,"49# (antibody, human IgG1, kappa, V domains shown, also called Sample # 49) VH: QVQLQESGPGLVRPSQTLSLTCTVSGYSITSDHAWSWVRQPPGRGLEWIGYISYSGITTYNASLKSRVTMLRDTSKNQFSLRLSSVTAADTAVYYCARSLARTTAMDYWGQGSLVTVSS VL: DIQMTQSPSSLSASVGDRVTITCRASQDISSYLNWYQQKPGKAPKLLIYYTSRLHSGVPSRFSGSGSGTDFTFTISSLQPEDIATYYCQQGNTLPYTFGQGTKVEIKR"
0.141 nM,20.2 fold vs 25 (Tocilizumab),3.38e-05 s⁻¹,239000 M⁻¹ s⁻¹,"66# (antibody, human IgG1, kappa, V domains shown, also called Sample # 66) VH: QVQLQESGPGLVRPSQTLSLTCTVSGYSITSDHAWSWVRQPPGRGLEWIGFISYSGMTTYNPSLKSRVTMLRDTSKNQFSLRLSSVTAADTAVYYCARSLARMTAMDYWGQGSLVTVSS VL: DIQMTQSPSSLSASVGDRVTITCRASQDISSYLNWYQQKPGKAPKLLIYYTSRLHSGVPSRFSGSGSGTDFTFTISSLQPEDIATYYCQQGNTLPYTFGQGTKVEIKR"
0.0674 nM,42.3 fold vs 25 (Tocilizumab),1.47e-05 s⁻¹,218000 M⁻¹ s⁻¹,"201# (antibody, human IgG1, kappa, V domains shown, also called Sample # 201) VH: QVQLQESGPGLVRPSQTLSLTCTVSGYSITSDHAWSWVRQPPGRGLEWIGFISYSGMTTYNPSLKSRVTMLRDTSKNQFSLRLSSVTAADTAVYYCARCLARITAIDFWGQGSLVTVSS VL: DIQMTQSPSSLSASVGDRVTITCRASQDISSYLNWYQQKPGKAPKLLIYYTSRLHSGVPSRFSGSGSGTDFTFTISSLQPEDIATYYCQQGNTLPYTFGQGTKVEIKR"
0.0258 nM,110 fold vs 25 (Tocilizumab),6.61e-06 s⁻¹,256000 M⁻¹ s⁻¹,"62# (antibody, human IgG1, kappa, V domains shown, also called Sample # 62) VH: QVQLQESGPGLVRPSQTLSLTCTVSGYSITSDHAWSWVRQPPGRGLEWIGFISYSGMTTYNPSLKSRVTMLRDTSKNQFSLRLSSVTAADTAVYYCARCLARATAMDYWGQGSLVTVSS VL: DIQMTQSPSSLSASVGDRVTITCRASQDISSYLNWYQQKPGKAPKLLIYYTSRLHSGVPSRFSGSGSGTDFTFTISSLQPEDIATYYCQQGNTLPYTFGQGTKVEIKR"
0.126 nM,22.6 fold vs 25 (Tocilizumab),2.79e-05 s⁻¹,221000 M⁻¹ s⁻¹,"208# (antibody, human IgG1, kappa, V domains shown, also called Sample # 208) VH: QVQLQESGPGLVRPSQTLSLTCTVSGYSITSDHAWSWVRQPPGRGLEWIGFISYSGMTTYNPSLKSRVTMLRDTSKNQFSLRLSSVTAADTAVYYCARSLARATAMDYWGQGSLVTVSS VL: DIQMTQSPSSLSASVGDRVTITCRASQDISSYLNWYQQKPGKAPKLLIYYTSRLHSGVPSRFSGSGSGTDFTFTISSLQPEDIATYYCQQGNTLPYTFGQGTKVEIKR"
0.334 nM,8.5 fold vs 25 (Tocilizumab),3.17e-05 s⁻¹,95000 M⁻¹ s⁻¹,"203# (antibody, human IgG1, kappa, V domains shown, also called Sample # 203) VH: QVQLQESGPGLVRPSQTLSLTCTVSGYSITSDHAWSWVRQPPGRGLEWIGYISYSGITTYNPSLKSRVTMLRDTSKNQFSLRLSSVTAADTAVYYCARCLARMTAMDYWGQGSLVTVSS VL: DIQMTQSPSSLSASVGDRVTITCRASQDISSYLNWYQQKPGKAPKLLIYYTSRLHSGVPSRFSGSGSGTDFTFTISSLQPEDIATYYCGQGNRLPYTFGQGTKVEIKR"
0.243 nM,11.7 fold vs 25 (Tocilizumab),5.59e-05 s⁻¹,230000 M⁻¹ s⁻¹,"56# (antibody, human IgG1, kappa, V domains shown, also called Sample # 56) VH: QVQLQESGPGLVRPSQTLSLTCTVSGYSITSDHAWSWVRQPPGRGLEWIGFISYSGMITYNPSLKSRVTMLRDTSKNQFSLRLSSVTAADTAVYYCARSLARITAMDYWGQGSLVTVSS VL: DIQMTQSPSSLSASVGDRVTITCRASQDISSYLNWYQQKPGKAPKLLIYYTSRLHSGVPSRFSGSGSGTDFTFTISSLQPEDIATYYCQQGNTLPYTFGQGTKVEIKR"
0.0296 nM,96.3 fold vs 25 (Tocilizumab),8.6e-06 s⁻¹,291000 M⁻¹ s⁻¹,"68# (antibody, human IgG1, kappa, V domains shown, also called Sample # 68) VH: QVQLQESGPGLVRPSQTLSLTCTVSGYSITSDHAWSWVRQPPGRGLEWIGFISYSGMTTYNPSLKSRVTMLRDTSKNQFSLRLSSVTAADTAVYYCARCLARITAIDYFGQGSLVTVSS VL: DIQMTQSPSSLSASVGDRVTITCRASQDISSYLNWYQQKPGKAPKLLIYYTSRLHSGVPSRFSGSGSGTDFTFTISSLQPEDIATYYCQQGNTLPYTFGQGTKVEIKR"
0.205 nM,13.9 fold vs 25 (Tocilizumab),4.59e-05 s⁻¹,224000 M⁻¹ s⁻¹,"60# (antibody, human IgG1, kappa, V domains shown, also called Sample # 60) VH: QVQLQESGPGLVRPSQTLSLTCTVSGYSITSDHAWSWVRQPPGRGLEWIGFISYSGMTTYNPSLKSRVTMLRDTSKNQFSLRLSSVTAADTAVYYCARSLARITAMDYWGQGSLVTVSS VL: DIQMTQSPSSLSASVGDRVTITCRASQDISSYLNWYQQKPGKAPKLLIYYTSRLHSGVPSRFSGSGSGTDFTFTISSLQPEDIATYYCQQGNTLPYTFGQGTKVEIKR"
0.133 nM,21.4 fold vs 25 (Tocilizumab),2.85e-05 s⁻¹,214000 M⁻¹ s⁻¹,"64# (antibody, human IgG1, kappa, V domains shown, also called Sample # 64) VH: QVQLQESGPGLVRPSQTLSLTCTVSGYSITSDHAWSWVRQPPGRGLEWIGFISYSGMTTYNPSLKSRVTMLRDTSKNQFSLRLSSVTAADTAVYYCARCLARMTAMDYWGQGSLVTVSS VL: DIQMTQSPSSLSASVGDRVTITCRASQDISSYLNWYQQKPGKAPKLLIYYTSRLHSGVPSRFSGSGSGTDFTFTISSLQPEDIATYYCQQGNTLPYTFGQGTKVEIKR"
0.42 nM,6.8 fold vs 25 (Tocilizumab),5.72e-05 s⁻¹,136000 M⁻¹ s⁻¹,"51# (antibody, human IgG1, kappa, V domains shown, also called Sample # 51) VH: QVQLQESGPGLVRPSQTLSLTCTVSGYSITSDHAWSWVRQPPGRGLEWIGYISYSGITTYNPSLKSRVTMLRDTSKNQFSLRLSSVTAADTAVYYCARCLARMTAMDYWGQGSLVTVSS VL: DIQMTQSPSSLSASVGDRVTITCRASQDISSYLNWYQQKPGKAPKLLIYYTSRLHSGVPSRFSGSGSGTDFTFTISSLQPEDIATYYCQQGNTLPYTFGQGTKVEIKR"

# Biological target: T1, sIL-6R (soluble IL-6 receptor; SBH …)
# Experiment: as above
# Remark: another data set of the same source
# Protocol: as §1
Kd,Relative Affinity,koff,kon,Binder
0.241 nM,11.6 fold vs 25 (Tocilizumab),3.39e-05 s⁻¹,141000 M⁻¹ s⁻¹,"249# (antibody, human IgG1, kappa, V domains shown) VH: QVQLQESGPGLVRPSQTLSLTCTVSGYSITSDHAWSWVRQPPGRGLEWIGYISYSGMTTYNPSLKSRVTMLRDTSKNQFSLRLSSVTAADTAVYYCARCLARATAMDYWGQGSLVTVSS VL: DIQMTQSPSSLSASVGDRVTITCRASQDISSYLNWYQQKPGKAPKLLIYYTSRLHSGVPSRFSGSGSGTDFTFTISSLQPEDIATYYCGQGNRLPYTFGQGTKVEIKR"
0.189 nM,14.8 fold vs 25 (Tocilizumab),1.73e-05 s⁻¹,91200 M⁻¹ s⁻¹,"248# (antibody, human IgG1, kappa, V domains shown, also called Sample # 248) VH: QVQLQESGPGLVRPSQTLSLTCTVSGYSITSDHAWSWVRQPPGRGLEWIGYISYSGMITYNPSLKSRVTMLRDTSKNQFSLRLSSVTAADTAVYYCARTLARMTAIDFWGQGSLVTVSS VL: DIQMTQSPSSLSASVGDRVTITCRASQDISSYLNWYQQKPGKAPKLLIYYTSRLHSGVPSRFSGSGSGTDFTFTISSLQPEDIATYYCGQGNRLPYTFGQGTKVEIKR"
0.212 nM,13.2 fold vs 25 (Tocilizumab),3.54e-05 s⁻¹,167000 M⁻¹ s⁻¹,"247# (antibody, human IgG1, kappa, V domains shown, also called Sample # 247) VH: QVQLQESGPGLVRPSQTLSLTCTVSGYSITSDHAWSWVRQPPGRGLEWIGYISYSGMTTYNPSLKSRVTMLRDTSKNQFSLRLSSVTAADTAVYYCARCLARMTAMDYWGQGSLVTVSS VL: DIQMTQSPSSLSASVGDRVTITCRASQDISSYLNWYQQKPGKAPKLLIYYTSRLHSGVPSRFSGSGSGTDFTFTISSLQPEDIATYYCGQGNRLPYTFGQGTKVEIKR"
